Experiment: protease stability score; higher = more stable; yeast display proteolysis, trypsin and chymotrypsin;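 note: relative to predicted unfolded state with 0 unfolded-like and 1 meaning tenfold more protease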

Work on “DEEEERTKHHFELLFKLWTTGDEDSLSHLADPNVRVHVDGKDFHGWEDMKDFMREWIERFKNVRLELKHFEAQGDKASSEIKIHYGDKHVTEFIEIILFNGRLHEIRRLFKRD” yielded a protease stability score of 1.01.
Sequence “DEEEERVIHIMHLFLEHISTGDEDKVKHLMDPNVRVFIGNKQHVGMHEIIKHLREWRIELDDVRTEEVRIQGDKLHLNGRLHVTLEFNGRRIRTTVRTTNIFRKVDGRWILEAIHID” has a protease stability score of 1.58.
Sequence “DEEEERVRNFVERLSKAVRTGDEEEMRDLFDPDVKSRQGDKDVIGRELVAEWLSKFFLRRGIEVHFELKRFEFQGDYLHLRLHVEVRIDGKDHTLTMYVLLIKVDGRWILHSIHRE” has a protease stability score of 1.54.
“DEEEERVRRIMKEFIESLLTGDFRILTELMDPNARLHVDGVELHGRETMRKFWKDRERELGVENFDAKQRDVRLINGKAHNDGELLINGQVTKWILRVEKVDGRWRLHHIELH” showed a protease stability score of 0.231.
For “DEEEESNRHLAEKFEEHHRTGDWRMMSKMFDPHVRVERIFNGRTVIIHGWEKYVKTVKDEFERIKGARLIIDDMKVQGEKSRVEGTLKINGRTVEVDIHLDIVDGRLRHVRIEIE”, the protease stability score was 0.201.
Work on “DEEEESSHNALKYWMHSLITGDEHTIERLADPHVLMVVNGKTFHGMERFHEALHEFNERIDHIERIEIKDMKIFDGRVIVELKVHGRIGDKRHELETYLVILKYDGKWHLHSISVK” yielded a protease stability score of 0.964.
With “DEEEESTKRVAKVLHHTNRTGDEKTMNEMLDPNAKQDYNGRINIGWERILEVLREWKDRLGLTRIELHIHDFDIQGDKARIDTTVDFNGVEFKLIIYVRKIDGKWVLERIEVR” the protease stability score was 0.368.
“DEEEESYRIAEHLFREVMETGDERISEHLADPRTRFQVGDKTFHGMDEWREVLHRMLVEIRMHDVKVHDVKSIGDKLIIDGYLYIEINGRRTSIYTELYWLKVNGQWRLHYITMH” showed a protease stability score of 1.12.
“DEEEETARRLTEELIRSQKTGDWEFLLRLMDPHAKSDINGVHVVGMEETVRILEKLLRDLGVTKVEALLHRVHFIDGRVHVDSEERYGDKWFRVHFTVQKINGKWVIRSIEVR” showed a protease stability score of 1.4.
In the case of “DEEEETEKKWADIFTKAWITGDEETLERLMDPNVKYHQEVGDKHWSAHGREEVSRHIHELLKHLGVKVVELRRIHVINGVVHVDGKTIVNGREFTVHIHYRIVDGRVREIRFEFR”, the protease stability score is reported as 2.22.
“DEEEETIRKYIEMMIRLWETGDEKSMLDLFDPDVRTLVNGQHLHGRHALEILLRRIDVRRHVHLHHIDLQGNKVEIDSRLEGTVDGKRDDIELTHHMVKVDGQWVIHNVEVR” gave a protease stability score of 1.02.
Work on “DEEEETIRRDAKLTLDLIRTGDEEHLKKMLDPHVRLQIVIGDKTIENHGREEVIRRLRHEWKRFKNMRILIEDKRVVGNWVHFFGTILYNGVEHEAVLDLVLIDGVLHSIRINVI” yielded a protease stability score of 1.6.
“DEEEETLREMLRMSKEALETGDETELHELFDPNVRVVVDGVTLHGWEAWSQFLREIRLSIREVRIKRVDRVDGKIIIDGKFHRIIIQGDKTRENTIDAEVLIRKVDGKWVYEHDSYL” showed a protease stability score of 0.823.
In the case of “DEEEETLRWVKELLKHLSKTGDFEKIVNYMDPDVRLNVDGVELVGMHHLERLAKEIRFKIHDLHPRRERIFDGKIQMDVEIDRIIHYGDKTTRERTTIIIIFEKVNGRWLIHTIHVH”, the protease stability score is reported as 1.17.
Work on “DEEEETMERALRETLHFINTGDEDSMEELMDPNWRIHIDGKDLHGWKFFQHLLRRADHIHIHIELKDVRRVGDKLELDGRLHVIYFIDGQEIHKVVDTHIYMIKINGRWHHKFIEIK” yielded a protease stability score of 2.15.
Sequence “DEEEETMRNIIMDWFRAMFTGDEERVNELLDPNARIEVGDKEWHGRDEFRKVLEHIRIHTRQIRIRRIDFFENRVHMDVQLDRELRFDGKTERIDVKLELFLVKIDGRWRFKETSVH” has a protease stability score of 2.57.
In the case of “DEEEEVLKTYLKLLIDALRTGDEHTMTRLIDPHARTHQGDKEIHGRKSMEELNKRYPNVRVDIRHISEVGDKITIDAVLHVGDKRYEIVIIAWKVNGRWEHTEFEFR”, the protease stability score is reported as 0.808.
With “DEEEEWARYILKKTMEAWLTGDEEIIRELLDPSTRLVIDGKEFHGMDEAQFLVREIRIDRIRTDMHDVKFQGDWIHVDGHIRVDETVNGRRRHKENRINIIVLKIDGRWYLHRYIIG” the protease stability score was 2.35.
Sequence “DEEEEWATEAWKLHLHHHRTGDERMIHELLDPNMRLDFDGVELHGRKLVKEFIERTLRRFDVIDEYDHSDVRIQGDKVDLIQVVRGEIDGRRTHVNQRLIMIKIDGRWVVKHVRLQ” has a protease stability score of 1.23.
With “DEEEEWLREVLRLIIEFLKTGDEDRLNEMADPTTRLRVGEFHHVGREEVHKFRKKKKDELGVDKIEFRLEDVRIQGDKATADGRVQYNGQEYKMRVIVVVVNGKVKSLTEEWE” the protease stability score was 1.07.
For “DEEEEWVRHLAHLFFEWYLTGDWQRFSELMDPTTLSVYGDKHFHGMELVVEFLSRSLDEMRIEHVEFKDIRVYNGVAHVHLRFEGKIGDKRTETDSRLLLYVVDGRIKHVKFIIK”, the protease stability score was 1.39.
For “DEEEEYAHRFVEDFIDAWLTGDEDRLEELMDPNVKIVVGDKVLVGRHLVIRLMHEWIRKYKGIKFVFHVKHLEAINGRLEIESEVDLRINGRKIKHTSKMVVRKIDGKWEIREFHLN”, the protease stability score was 2.38.
“DEEEEYAIEFVILHIEALKTGDERKLEHLMDPHYKLDYNGRKVHGREQWLRFLNEWRVHIHDIKVDDHDVVNGRVILHVTIHGTVIFDGRNIRTHHEQEYVLHKVNGRWHFHSMIVR” gave a protease stability score of 1.5.
In the case of “DEEEEYHRRVLETITRARLTGDEDLFRKNVDPDVKIEVHVGNFRFHDVGWEHLRRWIEELGFEIHHIEIKHEHVINGVMHQESERDGTFNGVRDRVKVRFIYFIVNGRIKHIRFEVE”, the protease stability score is reported as 0.781.
“DEEEEYLHKRAREFFRSFLTGDWHFLMHLLDPNVRWEVIIGNKRIERHGREELFKDLLRWLEEIRIKRMHVEEIHVFDGQLFMRVSAHGEFNGKERDTHEELVVVVVNGRFKSARIHVH” showed a protease stability score of 1.65.
With “DEEEEYYRRAVEIHERVLRTGDWRQLRELMDPRTKIDVGDKSFHGRDTITHWTKEMLEKFGVTKVEFHFDHLEMQGDKANIRGTLQINGQPIDISIHSVKIDGRWLIKFVKID” the protease stability score was 0.822.
With “DEEEEYYRVAIEIWLRVMMTGDPKYFDRLADPHVRVEQGDKRLHGMEDWSKRLEHMRIDHINIHQFKVVNGKIHVDTEVRGDVDGVEFRTRMELIFEKVDGRWILRRIHIN” the protease stability score was 2.71.
For “DEEEHALWHWFQEHVHALETGDEDTLRELADPNVRLDINGKRIHGRHQLEHLIHRIDHMRIDDYKIDHVDRQGEKVIIDGTFHGKIIQGDKTIHMHTRVIIILLKVDGQWRLKSEQID”, the protease stability score was 1.12.
“DEEEHDARELARIVIEQFLTGNEDMLREFMDPNTRLHVNGVHRHGRESMVIMLRQLRTKRVHIKSIRIIGEKVDVDGILNGEVNGVEDNHQVHFHLIKVDGQWYIHHVIIR” gave a protease stability score of 1.39.
“DEEEHDLRLAVELWHRLLETGDERVEKHLIDPHVRVHFNGRDLHGREAATWTLRTMGVKVFELKRIETFNGQVNIHQHVNVDGQHYDLIIHARKIDGRWVNESMRIH” showed a protease stability score of 0.667.
“DEEEHDVEVAFREYVKSTKTGDEDTLRHLADPHVKIWVDGRDFHGREVYYRLEKKIMEEWRFHDMHVEHVLVQGNKMTLHTRIDGEFDGKKVNLEVIIISVKVDGQWMIHSLEHR” gave a protease stability score of 2.22.
“DEEEHEAKRADEVYQHVMETGDERLLNEYFDPHYRLEQGDYELVGREEASRFLIEWMKHWRTEYRLDNYHVIGNKIRLEGELHIRYGNFTRSHRIVTYVLKVDGQWRIKKTEIR” showed a protease stability score of 1.64.
With “DEEEHEEKRLLEMHLHYLATGDEENLKKLLDPNVKLVVNGREIHGRERIIEFIRRLIEMWGVDRIDSRIRHVTSQGDKIRLEGEWIVGEKVIDTRLLAVKVDGRWVEETLILK” the protease stability score was 2.13.
For “DEEEHEIRQAIELEIRLIETGDFKAMRKMADPHVRTHINIGDKRLDLHGRDFFEWWLRFVKGVTHRFEDFVSVGNKVHIIVQDQVGDKRYEVKIVFKKVDGRWRMTESEVHFE”, the protease stability score was 1.83.
For “DEEEHELLHFVHLWIDILRTGDWEKISEYADPNVKLIVGDKIFIGMEAFIEFMERFLRRVDHVQYEIRSIRAYDGVIEMHTEVREHQGDKEIHTEVHITFFVYNGVKKHIEIRIK”, the protease stability score was 2.48.
With “DEEEHELQEAIEILKHDIETGNWERFVKRADPHARIRFNGRDLHGWERMKEVFEHVSKEFQNQKVEFETEHYFDGRVEVIVNIRIGDKNIHMRIISDKINGQWITREVRFH” the protease stability score was 1.41.
Work on “DEEEHEWRKVIHELLHAFMTGDWKRFLKLVDPHAKFLVDGQEMHGREVLKHYIDRIKNMRIEIRDETYDMVDGRMHSIFQLELTQGEYRHESYIEVIIKKFDGRWRVHEVDFEIR” yielded a protease stability score of 2.18.
With “DEEEHHIKTLLELHWEIWKTGDEDRFRELADPNTKLIVNGREVIGRERVAKVIHDILRHMRFHDFTLERDKIYNGQVDLHGTEYGHINGKNIERTHVFHIVIVNGVLKSIELRIH” the protease stability score was 1.01.
For “DEEEHHMKLAYDILLQTLRTGDEDLMERLIDPNVRFELLIGDFILHIHGWELVVEWDIRIARQWRIEHVHIKRYEVFNGRSRVNVKIDGVVNGRRYRFDIIELSLVIDGRVHHRSQEII”, the protease stability score was 0.835.
For “DEEEHIARHIFEHFITWLLTGDEEVLKDLADPNVRLDINGRHVVGREEFRRWLKEDLEHLRIHDMDLRRVRVQGNKMDLDVQVDGIVNGQHRHHNTRLIFEKVDGRWLLRSIIVK”, the protease stability score was 2.16.
For “DEEEHIERTFKDLFEHALETGDEHLLKRLLDPHARFDINGRDFHGREEVRRFWEETEKKLGIKHSEFRFRRRDHQGDFVRIDLHVIIFIGDKIEHREVEFFLTKIDGVWMIREVRVR”, the protease stability score was 0.613.
Work on “DEEEHIFQELIELWQTAMATGDEERTDRLLDPNAKIVINGVELHGMDEIKRLLEQMRLHVHDVKIDEIKFQGDYLHIDTTSDIIMRINGREHRIIVKTTVRMLKFDGRWWLHVISIR” yielded a protease stability score of 1.93.
“DEEEHIMKHELEKWWETVDTGDEDEMLRLADPNVRVDFNGREFVGREEFLKHVEFMVKEWRLTDRRIEREHVIDGKMIIHMRVHGTFNGKETDTRIEIILHVVDGKVKSEEYRIK” showed a protease stability score of 2.06.
“DEEEHIMRRVTDILVHYIATGDEDSLTRLLDPHARIIIDGRTIHGREWIQHHLRRIDHIHMHSYHIHDIRIQGDKVYADQEIDVEHRVNGVTIRKRFHVNIITVKVNGQWYLHSINNQ” gave a protease stability score of 1.45.
For “DEEEHKSKLAVELWHKVEETGDENTMKRLADPNVRIDINGVELHGMEVLVRRLREMGADHFHVDLRRVTVVNGRVHVNTEVIIRQGDKVIILTTRLHIEKVDGRWKITTIEFE”, the protease stability score was 1.32.
Sequence “DEEEHLARKIATIMIHTLITGNEEEMRRLADPTTRFHDEDHTFHGMEEYNRFIKEWRERFPGVKEEWKIRHIHVINGVAHFDIELRIIVGDKEVSDRVEFIIVVVDGRVKSFELRHK” has a protease stability score of 2.15.
In the case of “DEEEHLLRRVSHFWARARKTGNEEVIRDLMDPNMRSTINGVEFHGREEHLHTLREWRVKSVHFEHVHVVDGRIEIKMREDGFVNGRETHFTLRITIVIIDGVVHHISIDLR”, the protease stability score is reported as 0.787.
“DEEEHLMREALNTFMRTLETGDERQLNELLDPDVRSRVDGQDLHGREHVVRLFEEFRRQARIHHVDVHHMDVIGDWIRVELRVDIRIGDKLYTYKKHIVALKVDGRWFMHRVEIH” gave a protease stability score of 0.773.
In the case of “DEEEHLSKEAVRLYIESLHTGDEDLWRSLMDPNARLHINGREFHGMERVLRILREIRIKDTRIRDFHVVNGQVHNRMELEIKVGDKERSFDVELIAYKIDGRWITKSVIHH”, the protease stability score is reported as 1.29.
In the case of “DEEEHNLKKFLEIFLKAERTGDEEALRRMLDPNTKFVVGDKTYHGREEYIRWLNEIRIHRTEDKHIEVQGNKLHMDTRRRMEIDGREIDTEVRLELEVINGVVKLIIVDIR”, the protease stability score is reported as 1.86.

— the NTF2 design screens of Basanta et al. (2020)
